Assay results published in patent publication US20110105404A1 (TIANJIN MEDICAL UNIVERSITY, published 2011).

Experiments:
Aβ1-42 peptide [1] = experiment: cell-based or functional assay
Aβ1-42 peptide [2] = experiment: cell-based or functional assay; remark: listed apart in the source

| Binder | Inhibition (%) of Aβ1-42 aggregation and fibril formation, ThT fluorescence, 44.30 µmol/L peptide with 11.07 µmol/L Aβ1-42, 37° C., 24 h (Aβ1-42 peptide [1]) [%] | T1/2, time point at which the ThT fluorescence intensity reaches the half-peak (Aβ1-42 peptide [2]) [h] |
| --- | --- | --- |
| HKQLVFFEED [H101] | 24.8 |  |
| HKQLPFFEED [H102] | 27.8 | 96 |
| HQKLVFFAED [H103] | 14.9 |  |
